In patent US11485991B2, “Multifunctional recombinant nucleotide dependent glycosyltransferase protein and its method of glycosylation thereof” (Council of Scientific & Industrial Research, priority 2016, dated 2022):
Ends that are not written are not given here.

How the values were obtained:
[1] = system: Listeria monocytogenes EGD-e; assay: Agar well diffusion assay of antimicrobial activity of enterocin 96 glycoforms (zone of growth inhibition); format: cell-based; settings: 50 μM glycoform in agar wells, BHI agar seeded with Listeria monocytogenes EGD-e, 37° C. for 12 h
Procedure: The di-glycosylated, mono-glycosylated and un-glycosylated glycoforms corresponding to enterocin 96 (known bacteriocin) peptide sequence are prepared under controlled GT assay conditions and purified using RP-HPLC based method. The lyophilized product glycoforms including glyco-diversified forms are resuspended in 50 mM Tris-Cl, pH 7.5. The culture of Listeria monocytogenes EGD-e is grown in BHI media at 37° C. for 7-8 h. Agar plates are prepared by mixing 25 μL of saturated culture (A600≈1.5) and 100 mL of molten BHI agar (cooled to 40-45° C.) and pouring the mixture into sterile petri plates. The seeded agar plates are allowed to solidify for 30-45 min and agar wells are prepared using a sterile cork borer. 50 μM of all glycoforms including glyco-diversified forms are poured in to the wells and plates are incubated at 37° C. for 12 h. The antimicrobial activity is determined by the presence and absence of zone of growth inhibition.

[2] = system: synthetic acceptor substrates; assay: In vitro glycosyltransferase (GT) assay of GT-CTH mutants with MS detection of glycosylated product; format: biochemical; settings: purified mutant of GT-CTH, acceptor substrate and UDP-glucose, MS analysis
Procedure: Purified recombinant nucleotide dependent glycosyltransferase (0.2 μM) is incubated with synthetic acceptor substrates (5 μM) and 100 μM UDP-glucose in a reaction buffer containing 20 mM HEPES, pH 7.5, 50 mM NaCl, 1 mM TCEP and 1 mM MgCl2. The reaction is incubated at 25° C. for 12 h. Each assay reaction was accompanied by control reaction (without enzyme). The reactions are quenched with 5% TFA to pH 2, desalted using ZipTip C18, and vacuum dried and analyzed using mass spectrometry.
Mass spectrometry has been used to detect glycosylation in product of glycosylation assay reactions using Matrix Assisted Laser Desorption Ionization Time of flight mass spectrometry (MALDI-TOF MS) and Liquid chromatography electrospray ionization mass spectrometry (LC/ESI-MS) techniques. MALDI-TOF MS has carried out at AB Sciex 5800 MALDI TOF/TOF and LC/ESI-MS has carried out at 6550 iFunnel QTOF LC/MS (Agilent Technologies) using Zorbax Eclipse plus C8 column (3.0×150 mm, 5μ) of Agilent technologies. For MALDI-TOF analysis and LC-ESI/MS analysis, vacuum dried samples are reconstituted in water and 0.1% formic acid respectively.
Various mutations are introduced in recombinant nucleotide dependent glycosyltransferase (GT-CTH) using side directed mutagenesis (Quick change lightning Mutagenesis kit, Agilent) using GTpET28a plasmid as template. The sequence of mutants is verified through DNA sequencing. The mutated recombinant plasmids are transformed into E. coli Lemo21(DE3) and E. coli BL21(DE3) cells for expression. The over expression, purification and functional analysis of mutants of recombinant nucleotide dependent glycosyltransferase proteins are performed using the above mentioned methods. The list of mutants of recombinant nucleotide dependent glycosyltransferase, created in accordance with present invention identifies D102, R136, W147, D152, A153, D154 residues critical for activity of recombinant nucleotide dependent glycosyltransferase (GT-CTH). Replacement of these residues to alanine results into abolishment of the glycosyltransferase activity.

Molecule	antimicrobial activity (presence and absence of zone of growth inhibition) [1]	In vitro glycosyltransferase activity status [2]
di-glucosylated product: Enterocin 96 peptide (SEQ ID NO: 4) carrying a glucose-glucose disaccharide glycan, made with the recombinant glycosyltransferase (MSKRDCNLMKACCAGQAVTYAIHSLLNRLGGDSSDPAGCNDIVRKYCK; cysteine pairing not given here; also: glucose-glucose disaccharide glycan, site not given here)	more antimicrobial activity than mono-glucosylated product	
GT-CTH C87A (protein) MGYSENFIANDWFNVEVFNKNKYTLTNQENKDVTELWLQILKGLKFPNELKETVSYSKNLKELSLKTHAEVSVCIIAKNEQDSIRKAINSIYEFSDEIIFIDTGSIDSTKKIVKEIASEKVKIFDYTWQDDFSDARNYSIQKASKEWILIIDADEYVSSDELIKLRLLIDMLDRFKFKDSLRVSCAIYQLDNVITHGQSRLFRNNNKIKYYGLIHEELRNNKGLDPIFNVESEITFFHDGYKEILRKEKCERNIRLLAKMLEKEPDNVRWAYLYCRDSFSINSNIDFEKILLPFLIKNMDESISCENILLTNYTHLILFLITKKYIIDGKSSLASKCIEVLEKMLPNSSDVTFYKFLNKQHSLYEQQFEFLKEVIQFRKNNEYDQYSQIGCNLLHYDLLISGLLFDVKSYDYSYQYFLKLDLANYFSELEIPDEYKMLINKYRENESLEHHHHHH		Active
GT-CTH D102A (protein) MGYSENFIANDWFNVEVFNKNKYTLTNQENKDVTELWLQILKGLKFPNELKETVSYSKNLKELSLKTHAEVSVCIIAKNEQDSIRKCINSIYEFSDEIIFIATGSIDSTKKIVKEIASEKVKIFDYTWQDDFSDARNYSIQKASKEWILIIDADEYVSSDELIKLRLLIDMLDRFKFKDSLRVSCAIYQLDNVITHGQSRLFRNNNKIKYYGLIHEELRNNKGLDPIFNVESEITFFHDGYKEILRKEKCERNIRLLAKMLEKEPDNVRWAYLYCRDSFSINSNIDFEKILLPFLIKNMDESISCENILLTNYTHLILFLITKKYIIDGKSSLASKCIEVLEKMLPNSSDVTFYKFLNKQHSLYEQQFEFLKEVIQFRKNNEYDQYSQIGCNLLHYDLLISGLLFDVKSYDYSYQYFLKLDLANYFSELEIPDEYKMLINKYRENESLEHHHHHH		Inactive
GT-CTH D130A (protein) MGYSENFIANDWFNVEVFNKNKYTLTNQENKDVTELWLQILKGLKFPNELKETVSYSKNLKELSLKTHAEVSVCIIAKNEQDSIRKCINSIYEFSDEIIFIDTGSIDSTKKIVKEIASEKVKIFDYTWQADFSDARNYSIQKASKEWILIIDADEYVSSDELIKLRLLIDMLDRFKFKDSLRVSCAIYQLDNVITHGQSRLFRNNNKIKYYGLIHEELRNNKGLDPIFNVESEITFFHDGYKEILRKEKCERNIRLLAKMLEKEPDNVRWAYLYCRDSFSINSNIDFEKILLPFLIKNMDESISCENILLTNYTHLILFLITKKYIIDGKSSLASKCIEVLEKMLPNSSDVTFYKFLNKQHSLYEQQFEFLKEVIQFRKNNEYDQYSQIGCNLLHYDLLISGLLFDVKSYDYSYQYFLKLDLANYFSELEIPDEYKMLINKYRENESLEHHHHHH		Active
GT-CTH E97A (protein) MGYSENFIANDWFNVEVFNKNKYTLTNQENKDVTELWLQILKGLKFPNELKETVSYSKNLKELSLKTHAEVSVCIIAKNEQDSIRKCINSIYEFSDAIIFIDTGSIDSTKKIVKEIASEKVKIFDYTWQDDFSDARNYSIQKASKEWILIIDADEYVSSDELIKLRLLIDMLDRFKFKDSLRVSCAIYQLDNVITHGQSRLFRNNNKIKYYGLIHEELRNNKGLDPIFNVESEITFFHDGYKEILRKEKCERNIRLLAKMLEKEPDNVRWAYLYCRDSFSINSNIDFEKILLPFLIKNMDESISCENILLTNYTHLILFLITKKYIIDGKSSLASKCIEVLEKMLPNSSDVTFYKFLNKQHSLYEQQFEFLKEVIQFRKNNEYDQYSQIGCNLLHYDLLISGLLFDVKSYDYSYQYFLKLDLANYFSELEIPDEYKMLINKYRENESLEHHHHHH		Active
